Target: CD38 on expanded NK cells (g-NK or cNK) (human) (UniProt P28907)
Assay: cell-based or functional assay

Substance: daratumumab (antibody)
- daratumumab-induced fratricide of expanded NK cells (4 h, 1 µg/mL, PI staining, 3-color flow cytometry) (times lower (g-NK versus cNK)): 13

— US20240316102A1
